Measured values reported in PMC5111854.

Experiments:
[1] = target: Cas5c (Desulfovibrio vulgaris str. Hildenborough); test: ITC
[2] = target: Cas7 (Desulfovibrio vulgaris str. Hildenborough); test: ITC

Kd [1]	dH [1]	stoichiometry N [1]	Kd [2]	dH [2]	Substance
3.8 µM	5100 cal/mol	0.59	–	–	Cas7 (natural protein)
3.9 µM	4800 cal/mol	0.57	6 µM	5200 cal/mol	Cas8c (natural protein)
